This is an account of results in patent US20260242478A1 (published 2026).

For assay [1], the target named is T1, Anti-CD28 Fab (SEQ ID NOs: 696, 697).
T1 construct: Biotinylated and captured on neutravidin coated plates in the phage ELISA
As to the kind of experiment: phage binding ELISA on captured anti-CD28 Fab; competitor: CD28 antigen pre-incubated in the well.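 Further: clonal phage supernatants added briefly to wells preblocked with or without CD28, bound phage detected through an HRP-linked anti-M13 antibody, wells with blocking buffer alone as comparison.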 On the technique in general: ELISA stands for enzyme-linked immunosorbent assay.
T1 sequence (VH, as listed by the source, chain 1 of 2): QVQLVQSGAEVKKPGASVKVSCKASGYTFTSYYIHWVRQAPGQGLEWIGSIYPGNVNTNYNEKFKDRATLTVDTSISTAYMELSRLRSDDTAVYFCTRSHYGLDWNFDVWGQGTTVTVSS
T1 sequence (VL, as listed by the source, chain 2 of 2): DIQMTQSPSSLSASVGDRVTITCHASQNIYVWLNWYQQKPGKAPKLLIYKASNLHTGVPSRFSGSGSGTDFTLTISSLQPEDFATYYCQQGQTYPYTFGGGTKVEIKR
Protocol: (§1) Clonal phage were harvested as crude supematants and screened via standard ELISAs. […] Prior to the addition of clonal phage, wells were incubated with blocking buffer and CD28 antigen or blocking buffer alone. Without washing or aspirating, clonal phage supematants were then added to the wells and incubated for a short time. Wells were then washed followed by detection of bound phage using a horse radish conjugated anti-M13 antibody. Clonal phage of interest were then sent for sequence analysis.

Assay [2] has the same target. As to the kind of experiment: phage binding ELISA; biotinylated anti-CD28 Fab on neutravidin plate, bound phage detected with anti-M13-HRP.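 Further: clonal phage tested as crude supernatants, given a short incubation in the Fab-captured wells before bound phage were read.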
Target sequence in this assay (VH, as listed by the source, chain 1 of 2): as the sequence (VH, as listed by the source, chain 1 of 2) above
Target sequence in this assay (VL, as listed by the source, chain 2 of 2): as the sequence (VL, as listed by the source, chain 2 of 2) above
Protocol: as §1
The target of assay [3] is T2, Anti-CD28 Fab (SEQ ID NOs: 696, 697).
T2 construct: In the phage ELISA the Fab was biotinylated and captured on neutravidin coated plates
As to the kind of experiment: phage binding ELISA; Fab-coated wells pre-incubated with CD28 antigen as competitor.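 Further: clonal phage supernatants added to wells preincubated with CD28 antigen or blocking buffer only, bound phage detected with HRP-conjugated anti-M13 antibody, buffer-only wells as control.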
T2 sequence (VH, as listed by the source, chain 1 of 2): as the sequence (VH, as listed by the source, chain 1 of 2) above
T2 sequence (VL, as listed by the source, chain 2 of 2): as the sequence (VL, as listed by the source, chain 2 of 2) above
Protocol: (§2) Clonal phage were harvested as crude supematants and screened via standard ELISAs. […] Prior to the addition of clonal phage, wells were incubated with blocking buffer and CD28 antigen or blocking buffer alone. Without washing or aspirating, clonal phage supematants were then added to the wells and incubated for a short time. Wells were then washed followed by detection of bound phage using a horse radish conjugated anti-M13 antibody.

The target is the same in assay [4]. The assay can be described thus: phage binding ELISA; biotinylated anti-CD28 Fab on neutravidin plate, bound phage detected with anti-M13 HRP.
Target sequence in this assay (VH, as listed by the source, chain 1 of 2): as the sequence (VH, as listed by the source, chain 1 of 2) above
Target sequence in this assay (VL, as listed by the source, chain 2 of 2): as the sequence (VL, as listed by the source, chain 2 of 2) above
Protocol: as §2
The target of assay [5] is T3, Anti-CD28 Fab (SEQ ID NOs: 696, 697).
T3 construct: In the phage ELISA the Fab was biotinylated and captured on neutravidin coated plates
The assay can be described thus: phage ELISA; captured anti-CD28 Fab pre-incubated with CD28 antigen as competitor, anti-M13-HRP.
T3 sequence (VH, as listed by the source, chain 1 of 2): as the sequence (VH, as listed by the source, chain 1 of 2) above
T3 sequence (VL, as listed by the source, chain 2 of 2): as the sequence (VL, as listed by the source, chain 2 of 2) above
Protocol: as §2

Assay [6] has the same target. The assay can be described thus: phage ELISA; biotinylated anti-CD28 Fab on neutravidin plate, clonal phage detected with anti-M13-HRP.
Target sequence in this assay (VH, as listed by the source, chain 1 of 2): as the sequence (VH, as listed by the source, chain 1 of 2) above
Target sequence in this assay (VL, as listed by the source, chain 2 of 2): as the sequence (VL, as listed by the source, chain 2 of 2) above
Protocol: as §2

Where no end group is shown, it is not given here.

Take SCKAGAPYYWPGCF (tested as crude phage supernatant) [Phage-1535]: in assay [1], the “Anti-CD28 Fab signal in the presence of CD28” value is 0.08. Further, the “Anti-CD28 Fab (SEQ ID NOs: 696, 697) signal” value in assay [2] was found to be 1.54.

B1: Phage-1479 (peptide, not shown: large carriers)
peptide: WCAAVFSYSWPLCL
modifications: cysteine pairing not given here; also: displayed as fusion to phage pIII, pIII and linker not given here
notes: Clonal phage of the Peptide-92 optimisation library, tested as crude phage supernatant
In the case of B1, the “Anti-CD28 Fab signal in the presence of CD28” value in assay [3] turned out to be 0.06. Moreover, the “Anti-CD28 Fab (SEQ ID NOs: 696, 697) signal” value in assay [4] was 1.75.

B2: Phage-1458 peptide (SEQ ID NO: 1754) (peptide)
peptide: PCSAGATYAWLYCV
notes: tested as crude clonal phage supernatant
As for B2, the “Phage binding ELISA, Anti-CD28 Fab signal in the presence of CD28” value (shortened to “Phage binding ELISA … of CD28”) in assay [5] turned out to be 0.06. Also, the “Phage binding ELISA, Anti-CD28 Fab signal” value in assay [6] came to 1.81.

B3: Phage-1456 peptide (SEQ ID NO: 1752) (peptide)
peptide: LCKPGVPYQWPTCF
notes: as for B2
Turning to B3, the “Phage binding ELISA … of CD28” value in assay [5] was 0.05. Also, the “Phage binding ELISA, Anti-CD28 Fab signal” value in assay [6] came to 1.82.
As to TCAAGAAWEWPICF (tested as crude phage supernatant) [Phage-1538], the “Anti-CD28 Fab signal in the presence of CD28” value in assay [1] stood at 0.06. Besides, in assay [2], the “Anti-CD28 Fab (SEQ ID NOs: 696, 697) signal” value stood at 1.54.

B4: Phage-1480 (peptide, not shown: large carriers)
peptide: GCAAGFHYPWPLCL
modifications: cysteine pairing not given here; also: displayed as fusion to phage pIII, pIII and linker not given here
notes: as for B1
Consider B4, for which, in assay [3], the “Anti-CD28 Fab signal in the presence of CD28” value stood at 0.08. Further, the “Anti-CD28 Fab (SEQ ID NOs: 696, 697) signal” value in assay [4] was determined as 1.74.

B5: Phage-1475 (peptide, not shown: large carriers)
peptide: MCAAGAMYAWPTCL
modifications: cysteine pairing not given here; also: fused to phage pIII protein, pIII and linker not given here
notes: as for B1
B5: the “Anti-CD28 Fab signal in the presence of CD28” value in assay [3] came to 0.09. Besides, the “Anti-CD28 Fab (SEQ ID NOs: 696, 697) signal” value in assay [4] was 1.75.
For TCAAGAMWNWPQCY (tested as crude phage supernatant) [Phage-1539], the “Anti-CD28 Fab signal in the presence of CD28” value in assay [1] is 0.07. Besides, the “Anti-CD28 Fab (SEQ ID NOs: 696, 697) signal” value in assay [2] came out at 1.54.
In the case of LCAEGFDYSWPMCL (tested as crude phage supernatant) [Phage-1533], the “Anti-CD28 Fab signal in the presence of CD28” value in assay [1] was determined as 0.08. The “Anti-CD28 Fab (SEQ ID NOs: 696, 697) signal” value in assay [2] was determined as 1.55.

B6: Phage-1482 (peptide, not shown: large carriers)
peptide: TCAAGAAWPWPHCL
modifications: cysteine pairing not given here; also: displayed as fusion to phage pIII, pIII and linker not given here
notes: as for B1
Consider B6, for which the “Anti-CD28 Fab signal in the presence of CD28” value in assay [3] was found to be 0.06. Besides, in assay [4], the “Anti-CD28 Fab (SEQ ID NOs: 696, 697) signal” value was determined as 1.73.
For the molecule SCSAGAMYPWPMCL (tested as crude phage supernatant) [Phage-1540], in assay [1], the “Anti-CD28 Fab signal in the presence of CD28” value came to 0.06. Besides, in assay [2], the “Anti-CD28 Fab (SEQ ID NOs: 696, 697) signal” value amounted to 1.53.
Turning to TCSAVFSYTWSNCF (tested as crude phage supernatant) [Phage-1536], the “Anti-CD28 Fab signal in the presence of CD28” value in assay [1] turned out to be 0.06. The “Anti-CD28 Fab (SEQ ID NOs: 696, 697) signal” value in assay [2] turned out to be 1.54.

B7: Phage-1476 (peptide, not shown: large carriers)
peptide: TCAAGASFPWPWCL
modifications: cysteine pairing not given here; also: fused to phage pIII protein, pIII and linker not given here
notes: as for B1
Consider B7, for which the “Anti-CD28 Fab signal in the presence of CD28” value in assay [3] stood at 0.06. For the same molecule, the “Anti-CD28 Fab (SEQ ID NOs: 696, 697) signal” value in assay [4] was 1.75.

B8: Phage-1460 peptide (SEQ ID NO: 1756) (peptide)
peptide: SCAAGAAYPWPACL
notes: as for B2
As for B8, the “Phage binding ELISA … of CD28” value in assay [5] is 0.06. Further, in assay [6], the “Phage binding ELISA, Anti-CD28 Fab signal” value stood at 1.8.
TCEAVFIYSWPFCL (tested as crude phage supernatant) [Phage-1543]: in assay [1], the “Anti-CD28 Fab signal in the presence of CD28” value amounted to 0.08. Further, the “Anti-CD28 Fab (SEQ ID NOs: 696, 697) signal” value in assay [2] came out at 1.52.
Take TCAAGATWDWPLCF (tested as crude phage supernatant) [Phage-1546]: the “Anti-CD28 Fab signal in the presence of CD28” value in assay [1] turned out to be 0.06. The “Anti-CD28 Fab (SEQ ID NOs: 696, 697) signal” value in assay [2] stood at 1.51.

B9: Phage-1457 peptide (SEQ ID NO: 1753) (peptide)
peptide: TCAAGAMWQWPVCL
notes: as for B2
On to B9, for which the “Phage binding ELISA … of CD28” value in assay [5] stood at 0.06. In addition, the “Phage binding ELISA, Anti-CD28 Fab signal” value in assay [6] came out at 1.81.
LCAEGADYPWPMCL (tested as crude phage supernatant) [Phage-1545]: the “Anti-CD28 Fab signal in the presence of CD28” value in assay [1] turned out to be 0.08. The “Anti-CD28 Fab (SEQ ID NOs: 696, 697) signal” value in assay [2] turned out to be 1.51.

B10: Phage-1477 (peptide, not shown: large carriers)
peptide: SCAAVFPYPWPPCF
modifications: cysteine pairing not given here; also: fused to phage pIII protein, pIII and linker not given here
notes: as for B1
As to B10, the “Anti-CD28 Fab signal in the presence of CD28” value in assay [3] was 0.06. Besides, in assay [4], the “Anti-CD28 Fab (SEQ ID NOs: 696, 697) signal” value was 1.75.
TCSAGATYSWPFCF (tested as crude phage supernatant) [Phage-1534]: in assay [1], the “Anti-CD28 Fab signal in the presence of CD28” value amounted to 0.07. In addition, the “Anti-CD28 Fab (SEQ ID NOs: 696, 697) signal” value in assay [2] turned out to be 1.55.

B11: Phage-1459 peptide (SEQ ID NO: 1755) (peptide)
peptide: SCAAGAMWPWPVCV
notes: as for B2
Consider B11, for which the “Phage binding ELISA … of CD28” value in assay [5] was 0.06. Also, the “Phage binding ELISA, Anti-CD28 Fab signal” value in assay [6] worked out at 1.8.

B12: Phage-1485 (peptide, not shown: large carriers)
peptide: TCAAGATYPWPSCL
notes: as for B1
Regarding B12, the “Anti-CD28 Fab signal in the presence of CD28” value in assay [3] stood at 0.05. In assay [4], the “Anti-CD28 Fab (SEQ ID NOs: 696, 697) signal” value turned out to be 1.73.

B13: Phage-1486 (peptide, not shown: large carriers)
peptide: TCAAGAVWGWPLCF
notes: as for B1
In the case of B13, the “Anti-CD28 Fab signal in the presence of CD28” value in assay [3] is 0.06. Also, the “Anti-CD28 Fab (SEQ ID NOs: 696, 697) signal” value in assay [4] was determined as 1.73.

B14: Phage-1478 (peptide, not shown: large carriers)
peptide: TCSAGAMYPWPWCV
modifications: cysteine pairing not given here; also: fused to phage pIII protein, pIII and linker not given here
notes: as for B1
Take B14: the “Anti-CD28 Fab signal in the presence of CD28” value in assay [3] was determined as 0.08. In assay [4], the “Anti-CD28 Fab (SEQ ID NOs: 696, 697) signal” value was 1.75.

B15: Phage-1484 (peptide, not shown: large carriers)
peptide: MCSAGATYPWPMCL
notes: as for B1
For B15, the “Anti-CD28 Fab signal in the presence of CD28” value in assay [3] stood at 0.06. Moreover, the “Anti-CD28 Fab (SEQ ID NOs: 696, 697) signal” value in assay [4] is 1.73.
Regarding TCSAGATYVWPDCF (tested as crude phage supernatant) [Phage-1542], in assay [1], the “Anti-CD28 Fab signal in the presence of CD28” value was 0.09. The “Anti-CD28 Fab (SEQ ID NOs: 696, 697) signal” value in assay [2] was 1.52.

B16: Phage-1487 (peptide, not shown: large carriers)
peptide: TCAAGAHYAWPECF
notes: as for B1
With B16, the “Anti-CD28 Fab signal in the presence of CD28” value in assay [3] turned out to be 0.06. Besides, the “Anti-CD28 Fab (SEQ ID NOs: 696, 697) signal” value in assay [4] worked out at 1.72.
SCSAGAAWPWPWCL (tested as crude phage supernatant) [Phage-1532]: the “Anti-CD28 Fab signal in the presence of CD28” value in assay [1] worked out at 0.08. Moreover, the “Anti-CD28 Fab (SEQ ID NOs: 696, 697) signal” value in assay [2] is 1.55.

B17: Phage-1488 (peptide, not shown: large carriers)
peptide: RCRAGFSYNWPYCM
notes: as for B1
Consider B17, for which the “Anti-CD28 Fab signal in the presence of CD28” value in assay [3] came out at 0.06. For the same molecule, the “Anti-CD28 Fab (SEQ ID NOs: 696, 697) signal” value in assay [4] turned out to be 1.72.
For QCAAGAMWTWPACF (tested as crude phage supernatant) [Phage-1537], the “Anti-CD28 Fab signal in the presence of CD28” value in assay [1] was 0.06. For the same molecule, the “Anti-CD28 Fab (SEQ ID NOs: 696, 697) signal” value in assay [2] was 1.54.
As for LCSAGAMWQWPTCL (tested as crude phage supernatant) [Phage-1544], the “Anti-CD28 Fab signal in the presence of CD28” value in assay [1] stood at 0.05. In addition, the “Anti-CD28 Fab (SEQ ID NOs: 696, 697) signal” value in assay [2] came out at 1.51.

B18: Phage-1483 (peptide, not shown: large carriers)
peptide: QCAAGAMWTWPACF
notes: as for B1
For the molecule B18, the “Anti-CD28 Fab signal in the presence of CD28” value in assay [3] is 0.07. Besides, the “Anti-CD28 Fab (SEQ ID NOs: 696, 697) signal” value in assay [4] is 1.73.
For TCAAGASWEWPLCF (tested as crude phage supernatant) [Phage-1541], in assay [1], the “Anti-CD28 Fab signal in the presence of CD28” value came out at 0.08. The “Anti-CD28 Fab (SEQ ID NOs: 696, 697) signal” value in assay [2] stood at 1.52.

B19: Phage-1489 (peptide, not shown: large carriers)
peptide: WCAAGATWPWPLCI
notes: as for B1
Take B19: the “Anti-CD28 Fab signal in the presence of CD28” value in assay [3] stood at 0.17. Besides, the “Anti-CD28 Fab (SEQ ID NOs: 696, 697) signal” value in assay [4] came to 1.7.

B20: Phage-1481 (peptide, not shown: large carriers)
peptide: LCEEFFHYSWPVCL
modifications: cysteine pairing not given here; also: displayed as fusion to phage pIII, pIII and linker not given here
notes: as for B1
For B20, in assay [3], the “Anti-CD28 Fab signal in the presence of CD28” value was 0.06. Moreover, the “Anti-CD28 Fab (SEQ ID NOs: 696, 697) signal” value in assay [4] stood at 1.74.
